# Measured values reported in US20050101769A1 (VLAAMS INTERUNIVERSITAIR INSTITUUT VOOR BIOTECHNOLOGIE VZW, published 2005).
# B1: cytoplasmic region of TNF-RII (receptor, UniProt P20333 288-461, looked up)
# chain: KKKPLCLQREAKVPHLPADKARGTQGPEQQHLLITAPSSSSSSLESSASALDRRAPTRNQPQAPGVEASGAGEARASTGSSDSSPGGHGTQVNVTCIVNVCSSSDHSSQCSSQASSTMGDTDSSPSESPKDEQVPFSKEECAFRSQLETPETLLGSTEEKPLPLGVPDAGMKPS
# notes: domain: cytoplasmic region
# B2: 4F2d2, TTRAP deletion mutant, amino acids 54 to 236 (other)
# chain: MERALNSYFEPPVEESALERRPETISEPKTYVDLTNEETTDSTTSKISPSEDTQQENGSMFSLITWNIDGLDLNNLSERARGVCSYLALYSPDVIFLQEVIPPYYSYLKKRSSNYEIITGHEEGYFTAIMLKKSRVKLKSQEIIPFPSTKMMRNLLCVHVNVSGNELCLMTSHLESTRGHAAE
# notes: Yeast two-hybrid fusion
# B3: 4F2d3, TTRAP deletion mutant, amino acids 54 to 273 (other)
# chain: MERALNSYFEPPVEESALERRPETISEPKTYVDLTNEETTDSTTSKISPSEDTQQENGSMFSLITWNIDGLDLNNLSERARGVCSYLALYSPDVIFLQEVIPPYYSYLKKRSSNYEIITGHEEGYFTAIMLKKSRVKLKSQEIIPFPSTKMMRNLLCVHVNVSGNELCLMTSHLESTRGHAAERMNQLKMVLKKMQEAPESATVIFAGDTNLRDREVTRC
# notes: Yeast two-hybrid fusion
# B4: TTRAP (TRAF and TNF receptor associated protein), full-length human (other)
# chain: MELGSCLEGGREAAEEEGEPEVKKRRLLCVEFASVASCDAAVAQCFLAENDWEMERALNSYFEPPVEESALERRPETISEPKTYVDLTNEETTDSTTSKISPSEDTQQENGSMFSLITWNIDGLDLNNLSERARGVCSYLALYSPDVIFLQEVIPPYYSYLKKRSSNYEIITGHEEGYFTAIMLKKSRVKLKSQEIIPFPSTKMMRNLLCVHVNVSGNELCLMTSHLESTRGHAAERMNQLKMVLKKMQEAPESATVIFAGDTNLRDREVTRCGGLPNNIVDVWEFLGKPKHCQYTWDTQMNSNLGITAACKLRFDRIFFRAAAEEGHIIPRSLDLLGLEKLDCGRFPSDHWGLLCNLDIIL
# notes: Protein of 362 amino acids; In the yeast two-hybrid assays it is a fusion expressed from the prey plasmid (pJG45); also called CD40 receptor associated protein
# B5: 4F2, TTRAP deletion mutant, amino acids 54 to 362 (other)
# chain: MERALNSYFEPPVEESALERRPETISEPKTYVDLTNEETTDSTTSKISPSEDTQQENGSMFSLITWNIDGLDLNNLSERARGVCSYLALYSPDVIFLQEVIPPYYSYLKKRSSNYEIITGHEEGYFTAIMLKKSRVKLKSQEIIPFPSTKMMRNLLCVHVNVSGNELCLMTSHLESTRGHAAERMNQLKMVLKKMQEAPESATVIFAGDTNLRDREVTRCGGLPNNIVDVWEFLGKPKHCQYTWDTQMNSNLGITAACKLRFDRIFFRAAAEEGHIIPRSLDLLGLEKLDCGRFPSDHWGLLCNLDIIL
# notes: also called longest TTRAP fragment (aa 54-362); TTRAP/4F2
# Tests used:
# [1] = biological target: B4; test: yeast two-hybrid, colour formation on X-gal (column = prey, row = bait)
# Method: (§1) The potential binding of TTRAP to other proteins was assessed using a yeast two-hybrid assay. The experimental outline is similar to the one described for the two-hybrid screening. However, here the plasmids for bait, prey and lacZ reporter were transformed simultaneously into the EGY48 yeast strain. Positive interaction was determined either by the growth phenotype (growth on medium lacking leucine in the presence of galactose, and not in the presence of glucose) or by the blue/white staining on X-gal containing plates (blue colonies only on galactose containing plates, not on glucose containing plates). cDNA's for TRAF2 and for the cytoplasmic regions of CD30, CD40 and TNF-RII were generated by PCR using the pfu polymerase (Promega). PCR fragments encoding RIP, TRADD and FADD were cloned in pCDNA3 (Invitrogen, Carlsbad, Calif.). cDNA of TRAF3 was obtained from the laboratory of Dixit, Dept Pathol., Univ. Michigan Med. School, MI, USA. The color formation was evaluated as strong and fast (++), strong but slow (+), weak and slow (±), none (−) or not determined (nd).
# [2] = biological target: B5; test: as above
# Method: as §1
# [3] = biological target: B2; test: yeast two-hybrid, colour formation on X-gal; '-' = none
# Method: as §1
# [4] = biological target: B3; test: as above
# Method: as §1
# [5] = biological target: B5; test: as above
# Method: as §1
# [6] = biological target: B4; test: as above
# Method: as §1
# [7] = biological target: the molecule itself; test: yeast two-hybrid (in Table I: TTRAP prey with 4F2 bait)
# [8] = biological target: the molecule itself; test: yeast two-hybrid, colour formation on X-gal (column = prey, row = bait)
# Method: as §1
# [9] = biological target: B1; test: yeast two-hybrid, colour formation on X-gal; '-' = none
# Method: as §1
binder,measurement,setting,value
"cytoplasmic region of CD30 (receptor, UniProt P28908 407-595, looked up, domain: cytoplasmic region) CHRRACRKRIRQKLHLCYPVQTSQPKLELVDSRPRRSSTQLRSGASVTEPVAEERGLMSQPLMETCHSVGAAYLESLPLQDASPAGGPSSPRDLPEPRVSTEHTNNKIEKIYIMKADTVIVGTVKAELPEGRGLAGPAEPELEEELEADHTPHYPEQETEPPLGSCSDVMLSVEEEGKEDPLPTAASGK",binding result,[1],binds
same,binding result,[2],binds
B1,binding result,[1],binds
same,binding result,[2],binds
same,binding result,[3],no binding
same,binding result,[4],no binding
B2,binding result,[5],no binding
B3,binding result,[5],no binding
"FADD (other, UniProt Q13158 1-208, looked up) MDPFLVLLHSVSSSLSSSELTELKFLCLGRVGKRKLERVQSGLDLFSMLLEQNDLEPGHTELLRELLASLRRHDLLRRVDDFEAGAAAGAAPGEEDLCAAFNVICDNVGKDWRRLARQLKVSDTKIDSIEDRYPRNLTERVRESLRIWKNTEKENATVAHLVGALRSCQMNLVADLVQEVQQARDLQNRSGAMSPMSWNSDASTSEAS",binding result,[6],no binding
B4,binding result,[7],binds
B5,binding result,[8],binds
same,binding result,[1],binds
"4F2d1, TTRAP deletion mutant, amino acids 54 to 140 (other, Yeast two-hybrid fusion) MERALNSYFEPPVEESALERRPETISEPKTYVDLTNEETTDSTTSKISPSEDTQQENGSMFSLITWNIDGLDLNNLSERARGVCSYL",binding result,[9],no binding
same,binding result,[5],no binding
LMP-1 (other) YYHGQRHSDEHHHDDSLPHPQQATDDSGHESDSNSNEGRHHLLVSGAGDGPPLCSQNLGAPGGGPDNGPQDPDNTDDNGPQDPDNTDDNGPHDPLPQDPDNTDDNGPQDPDNTDDNGPHDPLPHSPSDSAGNDGGPPQLTEEVENKGGDQGPPLMTDGGGGHSHDSGHGGGDPHLPTLLLGSSGSGGDDDDPHGPVQLSYYD,binding result,[6],no binding
same,binding result,[5],no binding
